Laboratory results from PMC8606531, “The Impact of Rare Human Variants on Barrier-To-Auto-Integration Factor 1 (Banf1) Structure and Function”.
Substitutions are numbered along the chain they refer to.

Experiments:
Assay in all cases: EMSA; EC50; 10 mM KH2PO4, 100 mM NaCl, 0.01% IGEPAL, 5 nM Cy5 DNA, 30 min at 37 C; pH not stated; 8% gel in 1x TBE at 4 C
Details in all cases: protein: recombinant; tags: N-terminal His6 (pET-28a NdeI-XhoI); chain copies: 2; label: 5' Cy5 on forward strand; blunt
[1] = target: T1, Banf1 H7Y (Homo sapiens, UniProt O75531 1-89, H7Y)
T1 sequence: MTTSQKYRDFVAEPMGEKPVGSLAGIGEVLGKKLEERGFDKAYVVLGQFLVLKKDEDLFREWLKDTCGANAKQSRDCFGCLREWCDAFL

[2] = target: T2, Banf1 R75W (Homo sapiens, UniProt O75531 1-89, R75W)
T2 sequence: T1 sequence with Y7H, R75W

[3] = target: T3, Banf1 N70T (Homo sapiens, UniProt O75531 1-89, N70T)
T3 sequence: T1 sequence with Y7H, N70T

B1: Cy5 40 bp dsDNA (dsDNA)
DNA 1: AGGAGCGCCAGACCCACCAAGAGCCCTCTATCGGTTGGGA
DNA 2: TCCCAACCGATAGAGGGCTCTTGGTGGGTCTGGCGCTCCT
Question: Which results are given for B1?
Answer: apparent K (half saturation) [1]: 26.1 ± 5.02 nM; apparent K (half saturation) [2]: 27.8 ± 3.17 nM; apparent K (half saturation) [3]: 34.9 ± 4.38 nM
